# From publication PMC9982066, “Inhibition of Ehrlichia chaffeensis infection by cell-permeable macrocyclic peptides that bind type IV secretion effector Etf-1” (PNAS Nexus, 2023)
# Starred links: 1 amine or outer side, 2 acyl side, 3 side chain; linkers in the order of their positions; H or OH if unused. Positions of bridges follow the written chain, without caps; N, C: chain ends. Non-standard residues stand in square brackets, D forms with d. No end group written: not given here. Trimesoyl = O=C(c1cc(C(=O)[*:2])cc(C(=O)[*:3])c1)[*:1]; Phe(3,4-Cl2) = N[C@@H](Cc1ccc(Cl)c(Cl)c1)C(=O)O; Phe(4-CF3) = N[C@@H](Cc1ccc(C(F)(F)F)cc1)C(=O)O; Phe(3-Cl) = N[C@@H](Cc1cccc(Cl)c1)C(=O)O; Phe(4-Cl) = N[C@@H](Cc1ccc(Cl)cc1)C(=O)O; Phe(4-F) = N[C@@H](Cc1ccc(F)cc1)C(=O)O; Phe(4-Me) = Cc1ccc(C[C@H](N)C(=O)O)cc1; 2Nal = N[C@@H](Cc1ccc2ccccc2c1)C(=O)O; d1Nal = N[C@H](Cc1cccc2ccccc12)C(=O)O; d2Nal = N[C@H](Cc1ccc2ccccc2c1)C(=O)O; hPhe = N[C@@H](CCc1ccccc1)C(=O)O; Phg = N[C@H](C(=O)O)c1ccccc1; Nle = CCCC[C@H](N)C(=O)O; Dap = NC[C@H](N)C(=O)O; TMA = not defined here; βAla = NCCC(=O)O
# B1: FAM-labeled macrocyclic peptide B7-133-8 (peptide)
# chain: Y[d2Nal]Q[D‑beta‑homoalanine][dP][dL][Dap][Phe(4-Cl)][d2Nal][dR]R[dR]R[Dap]-{βAla-βAla-Lys(FAM)}
# modifications: linker 7-14 via TMA; reading uncertain; also: TMA third attachment point not given here
# B2: FAM-labeled macrocyclic peptide B7-133-3 (peptide)
# chain: Y[dF]D[Nle][dN][dL][Dap][Phe(4-Cl)][d2Nal][dR]R[dR]R[Dap]-{βAla-βAla-Lys(FAM)}
# modifications: linker 7-14 via TMA; reading uncertain; also: TMA third attachment point not given here
# B3: FAM-labeled macrocyclic peptide B7 (peptide)
# chain: YHQ[dP]S[dL][Dap]F[d2Nal][dR]R[dR]R[Dap]-{βAla-βAla-Lys(FAM)}
# modifications: linker 7-14 via TMA; reading uncertain; also: TMA third attachment point not given here
# B4: macrocyclic peptide B7-10, FAM-labelled (peptide)
# chain: YHQ[dP]S[dL][Dap]F[d2Nal][dR]A[dR]R[Dap]-{βAla-βAla-Lys(FAM)}
# modifications: linker 7-14 via TMA; reading uncertain; also: TMA third attachment point not given here
# B5: macrocyclic peptide B7-11, FAM-labelled (peptide)
# chain: YHQ[dP]S[dL][Dap]F[d2Nal][dR]R[dA]R[Dap]-{βAla-βAla-Lys(FAM)}
# modifications: linker 7-14 via TMA; reading uncertain; also: TMA third attachment point not given here
# B6: macrocyclic peptide B7-1, FAM-labelled (peptide)
# chain: YHQ[dP]S[dA][Dap]F[d2Nal][dR]R[dR]R[Dap]-{βAla-βAla-Lys(FAM)}
# modifications: linker 7-14 via TMA; reading uncertain; also: TMA third attachment point not given here
# Target: Ehrlichia translocated factor-1 (Etf-1), recombinant 6×His-Etf-1 fusion protein (E. chaffeensis, UniProt Q2GG12 1-380)
# Assay: fluorescence polarisation
# Conditions: both partners purified
row,Binder,Kd [µM]
1,B1,1.3 ± 0.1
2,B2,2.4 ± 0.3
3,B3,6.5 ± 0.7

# Target: Ehrlichia translocated factor-1 (Etf-1) (Ehrlichia chaffeensis, UniProt Q2GG12 1-380)
# Assay: fluorescence polarisation
# Conditions: both partners purified
row,Binder,Kd [µM]
1,"YHQ[dP]S[dL][Dap]F[d2Nal][dR]R[dR]A[Dap]-{βAla-βAla-Lys(FAM)} (linker N-7-14 via Trimesoyl; not fully specified (N-terminus)) [macrocyclic peptide B7-12, FAM-labelled]",15 ± 2
2,"YHQ[dP]S[dL][Dap][Phg][d2Nal][dR]R[dR]R[Dap]-{βAla-βAla-Lys(FAM)} (linker N-7-14 via Trimesoyl; not fully specified (N-terminus)) [macrocyclic peptide B7-14, FAM-labelled]",5.8 ± 0.9
3,"YHA[dP]S[dL][Dap]F[d2Nal][dR]R[dR]R[Dap]-{βAla-βAla-Lys(FAM)} (linker N-7-14 via Trimesoyl; not fully specified (N-terminus)) [macrocyclic peptide B7-4, FAM-labelled]",7.4 ± 0.9
4,"YHQ[dP]S[dL][Dap][Phe(4-Me)][d2Nal][dR]R[dR]R[Dap]-{βAla-βAla-Lys(FAM)} (linker N-7-14 via Trimesoyl; not fully specified (N-terminus)) [macrocyclic peptide B7-13, FAM-labelled]",6.3 ± 0.8
5,"YHQ[dP]S[dL][Dap][Phe(3-Cl)][d2Nal][dR]R[dR]R[Dap]-{βAla-βAla-Lys(FAM)} (linker N-7-14 via Trimesoyl; not fully specified (N-terminus)) [macrocyclic peptide B7-17, FAM-labelled]",3.4 ± 0.4
6,B4,30 ± 3
7,"YHQ[dP]S[dL][Dap][Phe(4-CF3)][d2Nal][dR]R[dR]R[Dap]-{βAla-βAla-Lys(FAM)} (linker N-7-14 via Trimesoyl; not fully specified (N-terminus)) [macrocyclic peptide B7-20, FAM-labelled]",1.8 ± 0.2
8,"YHQ[dP]S[dL][Dap][Phe(3,4-Cl2)][d2Nal][dR]R[dR]R[Dap]-{βAla-βAla-Lys(FAM)} (linker N-7-14 via Trimesoyl; not fully specified (N-terminus)) [macrocyclic peptide B7-19, FAM-labelled]",1.6 ± 0.2
9,"YHQ[dP]S[dL][Dap][Phe(4-Cl)][d1Nal][dR]R[dR]R[Dap]-{βAla-βAla-Lys(FAM)} (linker N-7-14 via Trimesoyl; not fully specified (N-terminus)) [macrocyclic peptide B7-23, FAM-labelled]",4.7 ± 0.5
10,"YHQ[dA]S[dL][Dap]F[d2Nal][dR]R[dR]R[Dap]-{βAla-βAla-Lys(FAM)} (linker N-7-14 via Trimesoyl; not fully specified (N-terminus)) [macrocyclic peptide B7-3, FAM-labelled]",5.8 ± 0.5
11,"AHQ[dP]S[dL][Dap]F[d2Nal][dR]R[dR]R[Dap] (linker 7-14 via TMA; not fully specified (C-terminus); reading uncertain) [macrocyclic peptide B7-6, FAM-labelled]",11.9 ± 3.4
12,B5,28 ± 6
13,"YHQ[dP]S[dL][Dap][Phe(4-Cl)][3‑(3-benzothienyl)‑D‑Ala][dR]R[dR]R[Dap]-{βAla-βAla-Lys(FAM)} (linker N-7-14 via Trimesoyl; not fully specified (N-terminus)) [macrocyclic peptide B7-22, FAM-labelled]",5.7 ± 0.9
14,"YAQ[dP]S[dL][Dap]F[d2Nal][dR]R[dR]R[Dap]-{βAla-βAla-Lys(FAM)} (linker N-7-14 via Trimesoyl; not fully specified (N-terminus)) [macrocyclic peptide B7-5, FAM-labelled]",10.9 ± 1.5
15,"YHQ[dP]S[dL][Dap][2Nal][d2Nal][dR]R[dR]R[Dap]-{βAla-βAla-Lys(FAM)} (linker N-7-14 via Trimesoyl; not fully specified (N-terminus)) [macrocyclic peptide B7-21, FAM-labelled]",1.9 ± 0.2
16,"YHQ[dP]A[dL][Dap]F[d2Nal][dR]R[dR]R[Dap]-{βAla-βAla-Lys(FAM)} (linker N-7-14 via Trimesoyl; not fully specified (N-terminus)) [macrocyclic peptide B7-2, FAM-labelled]",6.7 ± 0.8
17,B6,18.9 ± 6.9
18,"YHQ[dP]S[dL][Dap][hPhe][d2Nal][dR]R[dR]R[Dap]-{βAla-βAla-Lys(FAM)} (linker N-7-14 via Trimesoyl; not fully specified (N-terminus)) [macrocyclic peptide B7-15, FAM-labelled]",3.4 ± 0.6
19,"YHQ[dP]S[dL][Dap][Phe(4-F)][d2Nal][dR]R[dR]R[Dap]-{βAla-βAla-Lys(FAM)} (linker N-7-14 via Trimesoyl; not fully specified (N-terminus)) [macrocyclic peptide B7-18, FAM-labelled]",3 ± 0.5
20,"YHQ[dP]S[dL][Dap]F[d2Nal][dA]R[dR]R[Dap] (linker 7-14 via TMA; not fully specified (C-terminus); reading uncertain) [macrocyclic peptide B7-9, FAM-labelled]",30 ± 7
